The supplement of paper PMC11811203

B1: THAP1; numbered along this chain (parent)
chain: MVQSCSAYGCKNRYDKDKPVSFHKFPLTRPSLCKEWEAAVRRKNFKPTKYSSICSEHFTPDCFKRECNNKLLKENAVPTIFLCTEPHDKKEDLLEPQEQLPPPPLPPPVSQVDAAIGLLMPPLQTPVNLSVFCDHNYTVEDTMHQRKRIHQLEQQVEKLRKKLKTAQQRCRRQERQLEKLKEVVHFQKEKDDVSERGYVILPNDYFEIVEVPA

Variants of: B1
Test: THAP1 transcriptional activity (GFP+/GFP- enrichment relative to wild-type constructs) (ratio to WT); higher = more THAP1 activity (PSMB5 reporter activation)
Conditions: with PSMB5 promoter-GFP reporter
Protocol: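 Deep mutational scan of human THAP1. Site-saturation single amino acid variant library (residues 2-213) was expressed by lentivirus at MOI ~0.3 in THAP1-knockout HEK-293T cells carrying an endogenous PSMB5 promoter-GFP knock-in reporter. Five days post-transduction, BFP+ cells were FACS-sorted into GFP dim and GFP bright populations and variants were counted by Illumina sequencing. Activity is the GFP-bright/GFP-dim read fold change, mean of 2 replicates, divided by the mean fold change of wild-type (synonymous) constructs in the same screen pool; WT = 1.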

Point of comparison: MVQSCSAYGCKNRYDKDKPVSFHKFPLTRPSLCKEWEAAVRRKNFKPRKYSSICSEHFTPDCFKRECNNKLLKENAVPTIFLCTEPHDKKEDLLEPQEQLPPPPLPPPVSQVDAAIGLLMPPLQTPVNLSVFCDHNYTVEDTMHQRKRIHQLEQQVEKLRKKLKTAQQRCRRQERQLEKLKEVVHFQKEKDDVSERGYVILPNDYFEIVEVPA [T48R], THAP1 transcriptional activity 0.132. Against it:
- MVQSCSAYGCKNRYDKDKPVSFHKFPLTRPSLCKEWEAAVRRKNFKPNKYSSICSEHFTPDCFKRECNNKLLKENAVPTIFLCTEPHDKKEDLLEPQEQLPPPPLPPPVSQVDAAIGLLMPPLQTPVNLSVFCDHNYTVEDTMHQRKRIHQLEQQVEKLRKKLKTAQQRCRRQERQLEKLKEVVHFQKEKDDVSERGYVILPNDYFEIVEVPA [T48N] — higher, 0.545
- MVQSCSAYGCKNRYDKDKPVSFHKFPLTRPSLCKEWEAAVRRKNFKPYKYSSICSEHFTPDCFKRECNNKLLKENAVPTIFLCTEPHDKKEDLLEPQEQLPPPPLPPPVSQVDAAIGLLMPPLQTPVNLSVFCDHNYTVEDTMHQRKRIHQLEQQVEKLRKKLKTAQQRCRRQERQLEKLKEVVHFQKEKDDVSERGYVILPNDYFEIVEVPA [T48Y] — lower, 0.0779
- MVQSCSAYGCKNRYDKDKPVSFHKFPLTRPSLCKEWEAAVRRKNFKPMKYSSICSEHFTPDCFKRECNNKLLKENAVPTIFLCTEPHDKKEDLLEPQEQLPPPPLPPPVSQVDAAIGLLMPPLQTPVNLSVFCDHNYTVEDTMHQRKRIHQLEQQVEKLRKKLKTAQQRCRRQERQLEKLKEVVHFQKEKDDVSERGYVILPNDYFEIVEVPA [T48M] — higher, 0.138
- MVQSCSAYGCKNRYDKDKPVSFHKFPLTRPSLCKEWEAAVRRKNFKPLKYSSICSEHFTPDCFKRECNNKLLKENAVPTIFLCTEPHDKKEDLLEPQEQLPPPPLPPPVSQVDAAIGLLMPPLQTPVNLSVFCDHNYTVEDTMHQRKRIHQLEQQVEKLRKKLKTAQQRCRRQERQLEKLKEVVHFQKEKDDVSERGYVILPNDYFEIVEVPA [T48L] — lower, 0.115
- MVQSCSAYGCKNRYDKDKPVSFHKFPLTRPSLCKEWEAAVRRKNFKPKKYSSICSEHFTPDCFKRECNNKLLKENAVPTIFLCTEPHDKKEDLLEPQEQLPPPPLPPPVSQVDAAIGLLMPPLQTPVNLSVFCDHNYTVEDTMHQRKRIHQLEQQVEKLRKKLKTAQQRCRRQERQLEKLKEVVHFQKEKDDVSERGYVILPNDYFEIVEVPA [T48K] — higher, 0.158
- MVQSCSAYGCKNRYDKDKPVSFHKFPLTRPSLCKEWEAAVRRKNFKPGKYSSICSEHFTPDCFKRECNNKLLKENAVPTIFLCTEPHDKKEDLLEPQEQLPPPPLPPPVSQVDAAIGLLMPPLQTPVNLSVFCDHNYTVEDTMHQRKRIHQLEQQVEKLRKKLKTAQQRCRRQERQLEKLKEVVHFQKEKDDVSERGYVILPNDYFEIVEVPA [T48G] — higher, 0.419
- MVQSCSAYGCKNRYDKDKPVSFHKFPLTRPSLCKEWEAAVRRKNFKPWKYSSICSEHFTPDCFKRECNNKLLKENAVPTIFLCTEPHDKKEDLLEPQEQLPPPPLPPPVSQVDAAIGLLMPPLQTPVNLSVFCDHNYTVEDTMHQRKRIHQLEQQVEKLRKKLKTAQQRCRRQERQLEKLKEVVHFQKEKDDVSERGYVILPNDYFEIVEVPA [T48W] — lower, 0.0814
- MVQSCSAYGCKNRYDKDKPVSFHKFPLTRPSLCKEWEAAVRRKNFKPPKYSSICSEHFTPDCFKRECNNKLLKENAVPTIFLCTEPHDKKEDLLEPQEQLPPPPLPPPVSQVDAAIGLLMPPLQTPVNLSVFCDHNYTVEDTMHQRKRIHQLEQQVEKLRKKLKTAQQRCRRQERQLEKLKEVVHFQKEKDDVSERGYVILPNDYFEIVEVPA [T48P] — higher, 0.174
- MVQSCSAYGCKNRYDKDKPVSFHKFPLTRPSLCKEWEAAVRRKNFKPIKYSSICSEHFTPDCFKRECNNKLLKENAVPTIFLCTEPHDKKEDLLEPQEQLPPPPLPPPVSQVDAAIGLLMPPLQTPVNLSVFCDHNYTVEDTMHQRKRIHQLEQQVEKLRKKLKTAQQRCRRQERQLEKLKEVVHFQKEKDDVSERGYVILPNDYFEIVEVPA [T48I] — lower, 0.123
- MVQSCSAYGCKNRYDKDKPVSFHKFPLTRPSLCKEWEAAVRRKNFKPHKYSSICSEHFTPDCFKRECNNKLLKENAVPTIFLCTEPHDKKEDLLEPQEQLPPPPLPPPVSQVDAAIGLLMPPLQTPVNLSVFCDHNYTVEDTMHQRKRIHQLEQQVEKLRKKLKTAQQRCRRQERQLEKLKEVVHFQKEKDDVSERGYVILPNDYFEIVEVPA [T48H] — lower, 0.102
- MVQSCSAYGCKNRYDKDKPVSFHKFPLTRPSLCKEWEAAVRRKNFKPVKYSSICSEHFTPDCFKRECNNKLLKENAVPTIFLCTEPHDKKEDLLEPQEQLPPPPLPPPVSQVDAAIGLLMPPLQTPVNLSVFCDHNYTVEDTMHQRKRIHQLEQQVEKLRKKLKTAQQRCRRQERQLEKLKEVVHFQKEKDDVSERGYVILPNDYFEIVEVPA [T48V] — lower, 0.12
- MVQSCSAYGCKNRYDKDKPVSFHKFPLTRPSLCKEWEAAVRRKNFKPQKYSSICSEHFTPDCFKRECNNKLLKENAVPTIFLCTEPHDKKEDLLEPQEQLPPPPLPPPVSQVDAAIGLLMPPLQTPVNLSVFCDHNYTVEDTMHQRKRIHQLEQQVEKLRKKLKTAQQRCRRQERQLEKLKEVVHFQKEKDDVSERGYVILPNDYFEIVEVPA [T48Q] — lower, 0.0994
- MVQSCSAYGCKNRYDKDKPVSFHKFPLTRPSLCKEWEAAVRRKNFKPSKYSSICSEHFTPDCFKRECNNKLLKENAVPTIFLCTEPHDKKEDLLEPQEQLPPPPLPPPVSQVDAAIGLLMPPLQTPVNLSVFCDHNYTVEDTMHQRKRIHQLEQQVEKLRKKLKTAQQRCRRQERQLEKLKEVVHFQKEKDDVSERGYVILPNDYFEIVEVPA [T48S] — higher, 0.729
